From patent US8492329B2, “Bioactive peptides and methods of using same” (Compugen Ltd., priority 2007, dated 2013)
No end group written: not given here.

Experiments:
LGR8 (RXFP2) = LGR8 (RXFP2) (Homo sapiens, UniProt Q8WXD0); experiment: ACEA RT-CES cell impedance, LGR8 transfected CHO-K1 cells; format: cell-based; design: expressed in transfected cells; host or cells: CHO-K1 (transient); details: P74C13V 10 uM, P59C13V 10 uM, H2 Relaxin 1 uM, FIG. 14
Excerpt: ACEA RT-CES screen is a noninvasive and label-free assay for GPCRs that can be used with both engineered and nonengineered cell lines. The assay is based on using cell-electrode impedance to measure minute changes in cellular morphology as a result of ligand-dependent GPCR activation and is described in Naichen Yu, et al., Anal. Chem., 78 (1), 35-43, 2006. 10.1021/ac051695v S0003-2700(05)01695-1. The Rho family of small GTPases, which include Rho, Rac, and CDC42, are well-characterized effectors of oncogenes, growth factor and adhesion-mediated signaling pathways and are not classically thought of as being key effectors for GPCRs. Rho family GTPases participate in a number of cellular processes, the main one being regulation and maintenance of specific structures within the actin cytoskeleton framework. […] The current view of the actin cytoskeleton is that of a dynamic and plastic system that is a reflection and manifestation of the intracellular signaling and not simply a static structure designed to maintain cellular architecture. Since GPCRs couple to the actin cytoskeletal network and induce very defined morphological changes, it is possible to harness this information as a functional and biologically relevant readout for GPCRs.
ACEA biosciences; has designed electronic cell sensor arrays embedded in the bottom of the well of microtiter plates that are capable of measuring minute changes in cell morphology. The electronic sensors measure changes in cell-substrate impedance as a result of the disruption of the ionic environment due to the presence of cell and cell morphology dynamics. The main advantages offered by using cell-substrate impedance and cell morphology as a readout are that both exogenously expressed and endogenous receptors can be assayed without the need for engineering the cell with promiscuous G proteins and reporters or labeling the cells with dyes. In addition, since the readout is noninvasive, multiple stimulations with the same ligand or different ligands can be performed to assess events such as desensitization and receptor cross-talk. […]

LGR7 (RXFP1) = biological target: T1, LGR7 (RXFP1) (Homo sapiens, UniProt Q9HBX9); experiment: Competition with Europium labelled H2 Relaxin binding to HEK-293T cells expressing LGR7; design: expressed in transfected cells; details: LGR7 HEK-293T; 0.01 nM-10 μM; FIG. 9
T1 sequence (Q9HBX9 1-757): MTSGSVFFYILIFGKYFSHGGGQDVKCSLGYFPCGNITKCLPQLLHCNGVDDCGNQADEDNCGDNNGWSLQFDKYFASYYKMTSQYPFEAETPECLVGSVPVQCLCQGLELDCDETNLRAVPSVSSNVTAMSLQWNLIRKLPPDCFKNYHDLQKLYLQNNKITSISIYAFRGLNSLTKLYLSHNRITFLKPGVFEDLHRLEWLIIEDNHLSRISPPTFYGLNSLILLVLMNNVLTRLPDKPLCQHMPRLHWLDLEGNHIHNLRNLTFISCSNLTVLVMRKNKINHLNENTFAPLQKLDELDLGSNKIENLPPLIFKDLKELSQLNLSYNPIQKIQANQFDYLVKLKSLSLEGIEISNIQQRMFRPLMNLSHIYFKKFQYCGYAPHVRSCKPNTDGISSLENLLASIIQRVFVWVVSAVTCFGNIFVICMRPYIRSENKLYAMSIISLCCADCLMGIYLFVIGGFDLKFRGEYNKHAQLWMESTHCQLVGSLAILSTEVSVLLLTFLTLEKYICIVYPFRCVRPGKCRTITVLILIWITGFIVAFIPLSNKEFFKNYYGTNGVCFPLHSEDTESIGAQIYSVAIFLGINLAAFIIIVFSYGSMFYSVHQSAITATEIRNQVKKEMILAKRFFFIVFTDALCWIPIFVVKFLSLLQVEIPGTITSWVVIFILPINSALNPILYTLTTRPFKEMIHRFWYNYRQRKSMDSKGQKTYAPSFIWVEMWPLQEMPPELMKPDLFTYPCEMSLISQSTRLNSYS
Protocol: The ability of Peptides P74C13V (SEQ ID NO: 10) and P59C13V (SEQ ID NO: 6) to compete with the binding of known ligands to LGR7 or LGR8 was tested by testing the ability of P74C13V (SEQ ID NO: 10) and P59C13V (SEQ ID NO: 6) to compete with the binding of Europium labelled H2 Relaxin or INSL3 (manufactured by the H. Florey institute) to stable HEK-293T cell lines expressing LGR7 or LGR8 respectively.
HEK-293T cell lines stabelly expressing LGR7 (RXFP1) were treated with Europium labelled H2 Relaxin (manufactured by the H. Florey institute) The cells were then treated with decimal increasing concentrations (0.01 nM, 0.1 nM, 1 nM, 10 nM, 100 nM, 1 μM, 10 μM) of un-labeled H2 Relaxin (as a positive control) and the tested peptides P59C13V (P59) (SEQ ID NO: 6), P59C13V-Amide (P59-Amide) (SEQ ID NO: 5), P59-S-Amide (P59S) (SEQ ID NO: 1) and P74C13V (P74) (SEQ ID NO: 10). The binding results are shown as a percentage of specific binding of the radioactive test H2 Relaxin (where 100% is the baseline radiation level).

Chain of LGR8 (RXFP2) (Q8WXD0 whole entry): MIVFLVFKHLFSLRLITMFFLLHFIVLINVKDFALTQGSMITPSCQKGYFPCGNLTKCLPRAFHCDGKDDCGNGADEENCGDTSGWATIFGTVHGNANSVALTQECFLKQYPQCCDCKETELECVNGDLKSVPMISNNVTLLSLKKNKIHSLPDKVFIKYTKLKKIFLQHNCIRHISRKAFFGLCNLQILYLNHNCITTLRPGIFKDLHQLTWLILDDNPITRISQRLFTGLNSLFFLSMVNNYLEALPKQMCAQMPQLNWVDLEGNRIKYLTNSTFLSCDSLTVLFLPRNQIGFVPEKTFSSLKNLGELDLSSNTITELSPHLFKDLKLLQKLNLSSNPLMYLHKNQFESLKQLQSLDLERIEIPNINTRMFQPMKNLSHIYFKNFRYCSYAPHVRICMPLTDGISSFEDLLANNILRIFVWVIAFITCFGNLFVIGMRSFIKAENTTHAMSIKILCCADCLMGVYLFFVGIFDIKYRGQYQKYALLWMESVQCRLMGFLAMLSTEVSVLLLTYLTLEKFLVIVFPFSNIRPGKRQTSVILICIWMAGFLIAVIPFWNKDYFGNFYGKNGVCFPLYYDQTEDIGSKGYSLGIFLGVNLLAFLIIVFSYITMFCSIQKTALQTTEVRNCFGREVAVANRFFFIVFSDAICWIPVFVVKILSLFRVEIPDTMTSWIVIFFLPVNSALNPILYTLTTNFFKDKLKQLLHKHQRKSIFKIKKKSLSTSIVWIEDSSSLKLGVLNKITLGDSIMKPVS

Row | effect on cell impedance (normalized cell index) (LGR8 (RXFP2)) | competition for binding of Europium-H2 Relaxin (LGR7 (RXFP1)) | Substance
1 | strong cellular effect | no competition | GQKGQVGPPGAAVRRAYAAFSVGRRAYAAFSV-OH [Peptide P74C13V]
2 | strong cellular effect | – | H2 Relaxin: H2 Relaxin (ACS), positive control, known ligand of LGR7 (RXFP1) [reference compound]

The remaining lines, values behind:

Row | Substance | effect on cell impedance (normalized cell index) (LGR8 (RXFP2)) | competition for binding of Europium-H2 Relaxin (LGR7 (RXFP1))
3 | GQKGQVGPPGAAVRRAYAAFSV [Peptide P59C13V] | no significant effect as compared to BSA | no competition
4 | AYAAFSV-Amide (AYAAFSV-NH2) [Peptide P59-S-Amide] | – | no competition
5 | GQKGQVGPPGAAVRRAYAAFSV-Amide (GQKGQVGPPGAAVRRAYAAFSV-NH2) [P59C13V-Amide] | – | no competition
